For experiment [1], the target named is T1, rhIL-6-His (recombinant human IL-6, Val30 to Met212, C-terminal 6 His) (human, UniProt P05231 30-212). In words: cell-based or functional assay.
Experiment [2] concerns the target T1, rhIL-6-His (recombinant human IL-6, …). The experiment is described as follows: competition ELISA: antibody pre-incubated with rhIL-6-His, binding to coated rhIL-6R detected with anti-His-HRP. How it is done: The rhIL-6R (Sino Biological, 10398-H02H) antigen was diluted with PBS (pH=8.6) to 1.5 μg/ml, added to a microtiter plate A at 100 μl/well, coated overnight at 4° C., and blocked at 37° C. for 2 hour by adding 300 μl/well of 3% BSA after washing the plate for 4 times with PBST. […] The plate A was washed once with PBST, added with the mixture in plate B, and incubated at 37° C. for 1 hour. The plate A was washed for 4 times with PBST, added with 100 μl/well of HRP (horseradish peroxidase) labeled anti-His antibody (ProteinTech, HRP-66005), and incubated at 37° C. for 1 hour. The plate was washed for 4 times with PBST, added with 100 μl/well of TMB color-developing solution (Zuman Bio, ZD311), and incubated at 37° C. for 15 minutes for color development; 50 μl/well of stop solution (1M sulfuric acid) was added, and the absorbance value at 450 nm wavelength was measured on the microplate reader (BioTek, ELx808).
For orientation: An ELISA detects its analyte on a solid surface through an enzyme-linked reagent.

Experiment [3] shares this target. In words: BLI, ForteBio Blitz. Background: BLI is a label-free optical method that tracks binding on a fibre tip over time.
Experiment [4] shares this target. The experiment is described as follows: ELISA, rhIL-6-His coated at 1 µg/ml, anti-human IgG-HRP. As to the method:
The rhIL-6-His antigen was diluted with PBS (pH=8.6) to 1 μg/ml, added to a microtiter plate at 100 μl/well, coated overnight at 4° C., and blocked at 37° C. for 2 hour by adding 300 μl/well of 3% BSA after washing the plate 4 times with PBST. […] The plate was washed for 4 times with PBST, added with HRP (horseradish peroxidase) labeled goat anti-human IgG antibody (ProteinTech, SA00001-1), and incubated at 37° C. for 1 hour. The plate was washed for 4 times with PBST, added with 100 μl/well of TMB color-developing solution (Zuman Bio, ZD311), and incubated at 37° C. for 15 minutes; after color development, 50 μl/well of stop solution (1M sulfuric acid) was added, and the absorbance value at 450 nm wavelength was measured on the microplate reader (BioTek, ELx808).

T1 sequence (P05231 other isoform, or with tags, fused parts or gaps limits assumed): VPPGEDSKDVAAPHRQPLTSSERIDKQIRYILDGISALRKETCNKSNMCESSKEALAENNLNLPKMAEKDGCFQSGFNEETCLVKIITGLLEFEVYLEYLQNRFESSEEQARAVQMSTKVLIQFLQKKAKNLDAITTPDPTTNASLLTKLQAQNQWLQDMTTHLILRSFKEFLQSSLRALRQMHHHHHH

B1: Siltuximab (antibody, V domains shown)
VH: EVQLVESGGKLLKPGGSLKLSCAASGFTFSSFAMSWFRQSPEKRLEWVAEISSGGSYTYYPDTVTGRFTISRDNAKNTLYLEMSSLRSEDTAMYYCARGLWGYYALDYWGQGTSVTVSS
VL: QIVLIQSPAIMSASPGEKVTMTCSASSSVSYMYWYQQKPGSSPRLLIYDTSNLASGVPVRFSGSGSGTSYSLTISRMEAEDAATYYCQQWSGYPYTFGGGTKLEIK
Regarding B1, in experiment [1], the “concentration of SAA in supernatant of rhIL-6 stimulated HepG2 cells at 100 µg/mL antibody” value (“concentration of SAA” for short) turned out to be 148 ng/mL and the “concentration that inhibits IL-6-stimulated phosphorylation of p-Stat3 (Tyr705) in DLD-1 cells, Western blot” value came out at 64 µg/mL. The IC50 (in general, the concentration that gives 50% inhibition) in experiment [2] was determined as 12.5 µg/mL. In experiment [3], the kon (in general, a measure of how fast the partners come together) stood at 28900 M⁻¹ s⁻¹. Moreover, the concentration for a half-maximal effect (EC50) (commonly the midpoint of the concentration-response curve) in experiment [4] stood at 67.3 µg/mL.

B2: HZ-0408d (antibody, human IgG1, kappa, V domains shown)
VH: QVTLKESGPVLVKPTETLTLTCTVSGFSLSTSGMGVGWIRQPPGKALEWLAHIWWDDDKRYNSALKSRLTISKDTSKSQVVLTMTNMDPVDTATYYCARIGGLYVDYLMDYWGQGTLVTVSS
VL: DIQMTQSPSSLSASVGDRVTITCRASQSISDYLHWYQQKPGKAPKLLIYYASQSISGVPSRFSGSGSGTDFTLTISSLQPEDFATYYCQNGHSFPWTFGQGTKVEIKR
notes: Humanized from murine 140-4; IgG1 type antibody from 293F cells; also called L3/H3
With B2, in experiment [1], the “concentration of SAA” value was 85 ng/mL and the “concentration that inhibits IL-6-stimulated phosphorylation of p-Stat3 (Tyr705) in DLD-1 cells, Western blot” value came out at 32 µg/mL. Moreover, in experiment [2], the half-inhibitory concentration (IC50) came to 3.04 µg/mL. Further, the on-rate (kon) in experiment [3] came out at 93200 M⁻¹ s⁻¹. The EC50 in experiment [4] is 0.39 µg/mL.

B3: HZ-0408c (antibody, human IgG1, kappa, V domains shown)
VH: QVTLKESGPVLVKPTETLTLTCTVSGFSLSTSGMGVGWIRQPPGKALEWLAHIWWDDDKRYNSALKSRLTISKDTSKSQVVLTMTNMDPVDTATYYCARIGGLYVDYLMDYWGQGTLVTVSS
VL: EIVLTQSPATLSLSPGERATLSCRASQSISDYLHWYQQKPGQAPRLLIYYASQSISGIPARFSGSGSGTDFTLTISSLEPEDFAVYYCQNGHSFPWTFGQGTKVEIKR
notes: Humanized from murine 140-4; IgG1 type antibody from 293F cells; also called L2/H3
Regarding B3, in experiment [1], the “concentration of SAA” value turned out to be 12.5 ng/mL and the “concentration that inhibits IL-6-stimulated phosphorylation of p-Stat3 (Tyr705) in DLD-1 cells, Western blot” value was 8 µg/mL. Also, in experiment [2], the concentration for half-maximal inhibition (IC50) came out at 1.29 µg/mL. Further, the kon in experiment [3] was found to be 74300 M⁻¹ s⁻¹. Further, the concentration for a half-maximal effect (EC50) in experiment [4] stood at 0.18 µg/mL.

B4: HZ-0408a (antibody, human IgG1, kappa, V domains shown)
VH: QVTLKESGPALVKPTQTLTLTCTFSGFSLSTSGMGVGWIRQPPGKALEWLAHIWWDDDKRYNSALKSRLTISKDTSKNQVVLTMTNMDPVDTATYYCARIGGLYVDYLMDYWGQGTLVTVSS
VL: EIVLTQSPDFQSVTPKEKVTITCRASQSISDYLHWYQQKPDQSPKLLIKYASQSISGVPSRFSGSGSGTDFTLTINSLEAEDAATYYCQNGHSFPWTFGQGTKVEIKR
notes: Humanized from murine 140-4; expressed in 293F cells and captured on Protein A as an IgG1 type antibody; also called L1/H2
With B4, in experiment [1], the “concentration of SAA” value came to 30.5 ng/mL and the “concentration that inhibits IL-6-stimulated phosphorylation of p-Stat3 (Tyr705) in DLD-1 cells, Western blot” value came to 2 µg/mL. Besides, in experiment [2], the concentration for half-maximal inhibition (IC50) is 0.72 µg/mL. The kon in experiment [3] is 128000 M⁻¹ s⁻¹. Also, the EC50 in experiment [4] came out at 0.16 µg/mL.

B5: HZ-0408b (antibody, human IgG1, kappa, V domains shown)
VH: QVTLKESGPVLVKPTETLTLTCTVSGFSLSTSGMGVGWIRQPPGKALEWLAHIWWDDDKRYNSALKSRLTISKDTSKSQVVLTMTNMDPVDTATYYCARIGGLYVDYLMDYWGQGTLVTVSS
VL: EIVLTQSPDFQSVTPKEKVTITCRASQSISDYLHWYQQKPDQSPKLLIKYASQSISGVPSRFSGSGSGTDFTLTINSLEAEDAATYYCQNGHSFPWTFGQGTKVEIKR
notes: Humanized from murine 140-4; IgG1 type antibody from 293F cells; also called L1/H3
As to B5, in experiment [1], the “concentration of SAA” value is -2.5 ng/mL and the “concentration that inhibits IL-6-stimulated phosphorylation of p-Stat3 (Tyr705) in DLD-1 cells, Western blot” value amounted to 2 µg/mL. Also, in experiment [2], the IC50 came out at 0.53 µg/mL. Further, the kon in experiment [3] is 233000 M⁻¹ s⁻¹. Moreover, the EC50 in experiment [4] worked out at 0.09 µg/mL.

These data come from patent US20210395357A1 (IPHASE PHARMA SERVICE, published 2021).
